Bridge positions count the residues as written; N and C are the ends. Ends that are not written are not given here. COCH2 = acetyl group that carries the bridge
Target: T1, Recombinant Human FGFR2 alpha (IIIc) Fc Chimera Protein, CF (R&D systems, 712-FR-050) (human, UniProt P21802 22-377)
T1 construct: bought; not shown: Fc part of the chimera
Experiment: ELISA on plate-bound FGFR2-Fc
Method: First, 5 ng of Recombinant Human FGFR2 alpha (IIIc) Fc Chimera Protein (R&D systems, 712-FR-050) was immobilized in each well of a 96-well plate, and blocked with Pierce Protein-Free (PBS) Blocking Buffer (Thermo, 37572), and a peptide diluted with Can Get Signal Immunoreaction Enhancer Solution I (TOYOBO, NKB-101) was then added and reacted at room temperature for 3 hours. After washing with 0.05% Tween 20-containing phosphate buffered saline (PBS), an anti-Myc antibody (Cell Signaling, 14038S) diluted with Can Get Signal Immunoreaction Enhancer Solution II (TOYOBO, NKB-101) was added and reacted at room temperature for 2 hours. After washing with 0.05% Tween 20-containing PBS, SuperSignal ELISA Femto Substrate (Thermo, 37075) was added, and the luminescence amount was measured. The dose-response relationship was calculated from using the difference between the luminescence amount in the well in which FGFR was immobilized and the luminescence amount in the well in which FGFR was not immobilized, and the concentration of the peptide at the time of reaction, and the binding affinity to FGFR was evaluated according to the following evaluation criteria. The evaluation result preferably satisfies the evaluation criteria A, B, or C.

T1 sequence (P21802 22-377, change not shown): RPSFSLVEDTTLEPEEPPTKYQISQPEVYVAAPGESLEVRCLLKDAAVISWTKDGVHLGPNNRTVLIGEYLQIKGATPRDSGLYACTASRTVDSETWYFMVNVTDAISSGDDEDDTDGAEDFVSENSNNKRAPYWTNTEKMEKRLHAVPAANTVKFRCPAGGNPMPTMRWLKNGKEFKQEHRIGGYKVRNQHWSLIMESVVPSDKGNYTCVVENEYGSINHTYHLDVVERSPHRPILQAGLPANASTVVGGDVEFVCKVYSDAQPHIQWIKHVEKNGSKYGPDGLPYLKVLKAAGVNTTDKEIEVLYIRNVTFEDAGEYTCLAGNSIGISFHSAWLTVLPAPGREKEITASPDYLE

Binder	ELISA luminescence signal at 10 nmol/L peptide, relative to SEQ ID NO: 47 (=1) [ratio]
ECLGNYFSHEQYQYLLQYK(COCH2)I (thioether 2-19) [cyclic peptide SEQ ID NO: 133]	≥ 0.7
YCEENYLDPEQYQYFIYFK(COCH2)Y (thioether 2-19) [cyclic peptide SEQ ID NO: 131]	≥ 0.7
SCEENYLDPEQYQYFIYFK(COCH2)Y (thioether 2-19) [cyclic peptide SEQ ID NO: 145]	≥ 0.7
WCEENYLDPEQYQYFIYFK(COCH2)Y (thioether 2-19) [cyclic peptide SEQ ID NO: 142]	≥ 0.7
YCEFNYLDPEQYQYFIYFK(COCH2)Y (thioether 2-19 (inferred)) [cyclic peptide SEQ ID NO: 171]	0.5 to 0.7
YCPENYLDPEQYQYFIYFK(COCH2)Y (thioether 2-19) [cyclic peptide SEQ ID NO: 152]	≥ 0.7
YCYENYLDPEQYQYFIYFK(COCH2)Y (thioether 2-19) [cyclic peptide SEQ ID NO: 157]	≥ 0.7
RCEENYLDPEQYQYFIYFK(COCH2)Y (thioether 2-19) [cyclic peptide SEQ ID NO: 149]	≥ 0.7
TCEENYLDPEQYQYFIYFK(COCH2)Y (thioether 2-19) [cyclic peptide SEQ ID NO: 146]	≥ 0.7
YCIENYLDPEQYQYFIYFK(COCH2)Y (thioether 2-19) [cyclic peptide SEQ ID NO: 154]	≥ 0.7
FCEENYLDPEQYQYFIYFK(COCH2)Y (thioether 2-19) [cyclic peptide SEQ ID NO: 141]	≥ 0.7
YCEVNYLDPEQYQYFIYFK(COCH2)Y (thioether 2-19) [cyclic peptide SEQ ID NO: 170]	≥ 0.7
ECEENYLDPEQYQYFIYFK(COCH2)Y (thioether 2-19) [cyclic peptide SEQ ID NO: 148]	≥ 0.7
QCEENYLDPEQYQYFIYFK(COCH2)Y (thioether 2-19) [cyclic peptide SEQ ID NO: 144]	≥ 0.7
YCSENYLDPEQYQYFIYFK(COCH2)Y (thioether 2-19) [cyclic peptide SEQ ID NO: 161]	≥ 0.7
DCEENYLDPEQYQYFIYFK(COCH2)Y (thioether 2-19) [cyclic peptide SEQ ID NO: 147]	≥ 0.7
NCEENYLDPEQYQYFIYFK(COCH2)Y (thioether 2-19) [cyclic peptide SEQ ID NO: 143]	≥ 0.7
YCEPNYLDPEQYQYFIYFK(COCH2)Y (thioether 2-19) [cyclic peptide SEQ ID NO: 167]	≥ 0.7
HCEENYLDPEQYQYFIYFK(COCH2)Y (thioether 2-19) [cyclic peptide SEQ ID NO: 150]	≥ 0.7
YCRENYLDPEQYQYFIYFK(COCH2)Y (thioether 2-19) [cyclic peptide SEQ ID NO: 164]	≥ 0.7
YCGENYLDPEQYQYFIYFK(COCH2)Y (thioether 2-19) [cyclic peptide SEQ ID NO: 151]	≥ 0.7

Binder	ELISA luminescence signal at 10 nmol/L peptide, relative to SEQ ID NO: 47 (=1) [ratio]
YCTENYLDPEQYQYFIYFK(COCH2)Y (thioether 2-19) [cyclic peptide SEQ ID NO: 162]	≥ 0.7
YCVENYLDPEQYQYFIYFK(COCH2)Y (thioether 2-19) [cyclic peptide SEQ ID NO: 155]	≥ 0.7
YCLENYLDPEQYQYFIYFK(COCH2)Y (thioether 2-19) [cyclic peptide SEQ ID NO: 153]	≥ 0.7
VCEENYLDPEQYQYFIYFK(COCH2)Y (thioether 2-19) [cyclic peptide SEQ ID NO: 140]	≥ 0.7
YCEINYLDPEQYQYFIYFK(COCH2)Y (thioether 2-19) [cyclic peptide SEQ ID NO: 169]	≥ 0.7
YCEGNYLDPEQYQYFIYFK(COCH2)Y (thioether 2-19) [cyclic peptide SEQ ID NO: 166]	≥ 0.7
PCEENYLDPEQYQYFIYFK(COCH2)Y (thioether 2-19) [cyclic peptide SEQ ID NO: 137]	≥ 0.7
YCHENYLDPEQYQYFIYFK(COCH2)Y (thioether 2-19) [cyclic peptide SEQ ID NO: 165]	≥ 0.7
YCWENYLDPEQYQYFIYFK(COCH2)Y (thioether 2-19) [cyclic peptide SEQ ID NO: 158]	≥ 0.7
YCELNYLDPEQYQYFIYFK(COCH2)Y (thioether 2-19) [cyclic peptide SEQ ID NO: 168]	≥ 0.7
YCNENYLDPEQYQYFIYFK(COCH2)Y (thioether 2-19) [cyclic peptide SEQ ID NO: 159]	≥ 0.7
YCFENYLDPEQYQYFIYFK(COCH2)Y (thioether 2-19) [cyclic peptide SEQ ID NO: 156]	≥ 0.7
GCEENYLDPEQYQYFIYFK(COCH2)Y (thioether 2-19) [cyclic peptide SEQ ID NO: 136]	≥ 0.7
YCDENYLDPEQYQYFIYFK(COCH2)Y (thioether 2-19) [cyclic peptide SEQ ID NO: 163]	≥ 0.7
LCEENYLDPEQYQYFIYFK(COCH2)Y (thioether 2-19) [cyclic peptide SEQ ID NO: 138]	≥ 0.7
ICEENYLDPEQYQYFIYFK(COCH2)Y (thioether 2-19) [cyclic peptide SEQ ID NO: 139]	≥ 0.7
YCQENYLDPEQYQYFIYFK(COCH2)Y (thioether 2-19) [cyclic peptide SEQ ID NO: 160]	≥ 0.7
YCEYNYLDPEQYQYFIYFK(COCH2)Y (thioether 2-19 (inferred)) [cyclic peptide SEQ ID NO: 172]	≥ 0.7
LCADQYDYLLQYVFWRTYK(COCH2)I (thioether 2-19) [cyclic peptide SEQ ID NO: 134]	0.1 to 0.5
HCNANFVYQQQYLYLLQYK(COCH2)L (thioether 2-19 (inferred)) [cyclic peptide SEQ ID NO: 43]	0.5 to 0.7
QCTYLAQYLVERYHLTK(COCH2)T (thioether 2-17) [cyclic peptide SEQ ID NO: 135]	0.1 to 0.5
